Laboratory results as given in publication PMC10777347, “De Novo Single-Stranded RNA-Binding Peptides Discovered by Codon-Restricted mRNA Display” (Biomacromolecules, 2023).

Tests used:
[1] = system: AP2 (synthetic (de novo)); assay: spectral shift; settings: Spectral shift: 10 mM Tris-HCl pH 8.0, 0.05% Tween 20, no added salt, 25 C, Cy5 oligo (20 nM stock), 30 min at RT; MST with oncogenic RNAs in human plasma-like …
[2] = system: AP2-short Q to S (synthetic (de novo)); assay: spectral shift; settings: Spectral shift: 10 mM Tris-HCl pH 8.0, 0.05% Tween 20, no added salt, 25 C, Cy5 oligo (20 nM stock), 30 min at RT; MST with oncogenic RNAs in human plasma-like …
[3] = system: CP1 (synthetic (de novo)); assay: spectral shift; settings: Spectral shift: 10 mM Tris-HCl pH 8.0, 0.05% Tween 20, no added salt, 25 C, Cy5 oligo (20 nM stock), 30 min at RT; MST with oncogenic RNAs in human plasma-like …
[4] = system: AP2-short (synthetic (de novo)); assay: spectral shift; settings: Spectral shift: 10 mM Tris-HCl pH 8.0, 0.05% Tween 20, no added salt, 25 C, Cy5 oligo (20 nM stock), 30 min at RT; MST with oncogenic RNAs in human plasma-like …
[5] = system: CP2 (synthetic (de novo)); assay: spectral shift; settings: Spectral shift: 10 mM Tris-HCl pH 8.0, 0.05% Tween 20, no added salt, 25 C, Cy5 oligo (20 nM stock), 30 min at RT; MST with oncogenic RNAs in human plasma-like …
[6] = system: AP2 QNQ to TNH (synthetic (de novo)); assay: spectral shift; settings: Spectral shift: 10 mM Tris-HCl pH 8.0, 0.05% Tween 20, no added salt, 25 C, Cy5 oligo (20 nM stock), 30 min at RT; MST with oncogenic RNAs in human plasma-like …
[7] = system: CP1 (synthetic (de novo)); assay: MST; settings: Spectral shift: 10 mM Tris-HCl pH 8.0, 0.05% Tween 20, no added salt, 25 C, Cy5 oligo (20 nM stock), 30 min at RT; MST with oncogenic RNAs in human plasma-like …
[8] = molecular target: hnRNPK (UniProt P61978); assay: fluorescence anisotropy; settings: Spectral shift: 10 mM Tris-HCl pH 8.0, 0.05% Tween 20, no added salt, 25 C, Cy5 oligo (20 nM stock), 30 min at RT; MST with oncogenic RNAs in human plasma-like …; cited from earlier work
[9] = molecular target: MYU lncRNA; settings: fluorescence anisotropy binding assay, previous study; read-out: KD^hnRNPK, MYU lncRNA; cited from earlier work
Procedure: Figure 7 Assessment of the affinity of poly(C) RNA-binding peptides to cytosine-rich oncogenic RNA motifs. […] The KD^CP1s were measured using microscale thermophoresis in a human plasma-like medium. Cytosines predicted to be single-stranded within RNA ligands are highlighted in red. Cytosine-to-adenine substitution is highlighted in blue. The predicted secondary structures are available in Figure S11. The complete thermodynamic plots are shown in Figure S12. *The KD^hnRNPKs are the dissociation ...

[10] = molecular target: Cdk6 3′UTR RNA; settings: fluorescence anisotropy binding assay, previous study; read-out: KD^hnRNPK, Cdk6 3′UTR RNA; cited from earlier work
Procedure: To evaluate the synthetic ssRNA-binding peptide’s affinity for biologically derived RNA targets, we have chosen two cytosine-rich RNA motifs from the oncogenic Cdk6 3′UTR RNA and MYU lncRNA. These motifs have previously been identified as targets of hnRNPK,[45] and they both consist of extended cytosine repeats (>4 nt) within a necessary single-stranded region for the progression of colon cancer cells. […] The KD^CP1s were measured using microscale thermophoresis in a human plasma-like medium. Cytosines predicted to be single-stranded within RNA ligands are highlighted in red. Cytosine-to-adenine substitution is highlighted in blue. The predicted secondary structures are available in Figure S11. The complete thermodynamic plots are shown in Figure S12. *The KD^hnRNPKs are the dissociation ...

Substance: AAAAAAAAAAAA [poly(A) DNA]
- binding signal (fold weaker than poly(A) RNA) [1]: 2

Substance: AAAAAAAAAAAA [poly(A) RNA]
- Kd [1]: 18800 nM
- Kd [2]: 115000 nM
- binding signal (fold weaker than poly(C) RNA) [3]: 4
- Kd [4]: 82000 nM

Substance: CCCCCCCCCCCC [poly(C) DNA]
- binding signal (fold weaker than poly(C) RNA) [3]: 7

Substance: CCCCCCCCCCCC [poly(C) RNA]
- Kd [5]: 1200 nM
- Kd [3]: 900 nM
- Kd [6]: 120000 nM

Substance: GGCUCCCCCGACCUCUGUGCUCCCCUCCCCCGACCUCUGUGC [MYU lncRNA motif]
- Kd [7]: 107 nM

Substance: GGUCCCCCGCCUCAUUCGCCCCUCUGCUCCC [Cdk6 3'UTR RNA motif]
- Kd [8]: 450 nM
- Kd [7]: 103 nM

Substance: hnRNPK: endogenous RNA-binding protein with KH domain, binds cytosine-rich RNA motifs
- Kd [9]: 70 ± 7 nM
- Kd [10]: 450 nM

Substance: poly(C) RNA / antisense DNA hybrid
- binding signal (fold weaker than poly(C) RNA) [3]: 6
